Assay results: patent US20240117018A1

Legend:
Experiment in all cases: cell-based or functional assay
[1] = target: HIV-1 Env of pseudovirus 0815.v3.c3 (HIV-1)
[2] = target: HIV-1 Env of pseudovirus 191955_A11 (HIV-1)
[3] = target: HIV-1 Env of pseudovirus 211-9 (HIV-1)
[4] = target: HIV-1 Env of pseudovirus 231965.c01 (HIV-1)
[5] = target: HIV-1 Env of pseudovirus 231966.c02 (HIV-1)
[6] = target: HIV-1 Env of pseudovirus 235-47 (HIV-1)
[7] = target: HIV-1 Env of pseudovirus 263-8 (HIV-1)
[8] = target: HIV-1 Env of pseudovirus 3016.v5.c45 (HIV-1)
[9] = target: HIV-1 Env of pseudovirus 3817.v2.c59 (HIV-1)
[10] = target: HIV-1 Env of pseudovirus 6041.v3.c23 (HIV-1)
[11] = target: HIV-1 Env of pseudovirus 6540.v4.c1 (HIV-1)
[12] = target: HIV-1 Env of pseudovirus 6545.v4.c1 (HIV-1)
[13] = target: HIV-1 Env of pseudovirus 6811.v7.c18 (HIV-1)
[14] = target: HIV-1 Env of pseudovirus 6952.v1.c20 (HIV-1)
[15] = target: HIV-1 Env of pseudovirus 89-F1_2_25 (HIV-1)
[16] = target: HIV-1 Env of pseudovirus 9004SS_A3_4 (HIV-1)
[17] = target: HIV-1 Env of pseudovirus A07412M1.vrc12 (HIV-1)
[18] = target: HIV-1 Env of pseudovirus BJOX009000.02.4 (HIV-1)
[19] = target: HIV-1 Env of pseudovirus BJOX010000.06.2 (HIV-1)
[20] = target: HIV-1 Env of pseudovirus BJOX015000.11.5 (HIV-1)
[21] = target: HIV-1 Env of pseudovirus BJOX025000.01.1 (HIV-1)
[22] = target: HIV-1 Env of pseudovirus BJOX028000.10.3 (HIV-1)
[23] = target: HIV-1 Env of pseudovirus C1080.c03 (HIV-1)
[24] = target: HIV-1 Env of pseudovirus C3347.c11 (HIV-1)
[25] = target: HIV-1 Env of pseudovirus P0402_c2_11 (HIV-1)
[26] = target: HIV-1 Env of pseudovirus R1166.c01 (HIV-1)
[27] = target: HIV-1 Env of pseudovirus R2184.c04 (HIV-1)
[28] = target: HIV-1 Env of pseudovirus R3265.c06 (HIV-1)
[29] = target: HIV-1 Env of pseudovirus T255-34 (HIV-1)
[30] = target: HIV-1 Env of pseudovirus T257-31 (HIV-1)
[31] = target: HIV-1 Env of pseudovirus T278-50 (HIV-1)
[32] = target: HIV-1 Env of pseudovirus X1193_c1 (HIV-1)
[33] = target: HIV-1 Env of pseudovirus X1254_c3 (HIV-1)
[34] = target: HIV-1 Env of pseudovirus X1632_S2_B10 (HIV-1)
[35] = target: HIV-1 Env of pseudovirus X2088_c9 (HIV-1)
[36] = target: HIV-1 Env of pseudovirus X2131_C1_B5 (HIV-1)

N49P19 (antibody)
neutralization IC50 [1]: 0.176 µg/mL | neutralization IC80 [1]: 0.743 µg/mL | neutralization MPI [1]: 100 | neutralization IC50 [2]: > 50 µg/mL | neutralization IC80 [2]: > 50 µg/mL | neutralization MPI [2]: 16 | neutralization IC50 [3]: 3.23 µg/mL | neutralization IC80 [3]: 19 µg/mL | neutralization MPI [3]: 93 | neutralization IC50 [4]: > 50 µg/mL | neutralization IC80 [4]: > 50 µg/mL | neutralization MPI [4]: 22 | neutralization IC50 [5]: 0.653 µg/mL | neutralization IC80 [5]: 4.55 µg/mL | neutralization MPI [5]: 100 | neutralization IC50 [6]: 0.44 µg/mL | neutralization IC80 [6]: 3.23 µg/mL | neutralization MPI [6]: 89 | neutralization IC50 [7]: 0.344 µg/mL | neutralization IC80 [7]: 1.51 µg/mL | neutralization MPI [7]: 99 | neutralization IC50 [8]: > 50 µg/mL | neutralization IC80 [8]: > 50 µg/mL | neutralization MPI [8]: 9 | neutralization IC50 [9]: > 50 µg/mL | neutralization IC80 [9]: > 50 µg/mL | neutralization MPI [9]: 26 | neutralization IC50 [10]: > 50 µg/mL | neutralization IC80 [10]: > 50 µg/mL | neutralization MPI [10]: 32 | neutralization IC50 [11]: 11.2 µg/mL | neutralization IC80 [11]: > 50 µg/mL | neutralization MPI [11]: 63 | neutralization IC50 [12]: > 50 µg/mL | neutralization IC80 [12]: > 50 µg/mL | neutralization MPI [12]: 2 | neutralization IC50 [13]: 1.3 µg/mL | neutralization IC80 [13]: 4.71 µg/mL | neutralization MPI [13]: 97 | neutralization IC50 [14]: > 50 µg/mL | neutralization IC80 [14]: > 50 µg/mL | neutralization MPI [14]: 0 | neutralization IC50 [15]: > 50 µg/mL | neutralization IC80 [15]: > 50 µg/mL | neutralization MPI [15]: 7 | neutralization IC50 [16]: 0.661 µg/mL | neutralization IC80 [16]: 3.09 µg/mL | neutralization MPI [16]: 100 | neutralization IC50 [17]: 3.89 µg/mL | neutralization IC80 [17]: 48.8 µg/mL | neutralization MPI [17]: 80 | neutralization IC50 [18]: 3.66 µg/mL | neutralization IC80 [18]: 25.6 µg/mL | neutralization MPI [18]: 87 | neutralization IC50 [19]: 4.16 µg/mL | neutralization IC80 [19]: 19.1 µg/mL | neutralization MPI [19]: 96 | neutralization IC50 [20]: 0.756 µg/mL | neutralization IC80 [20]: 3.17 µg/mL | neutralization MPI [20]: 99 | neutralization IC50 [21]: > 50 µg/mL | neutralization IC80 [21]: > 50 µg/mL | neutralization MPI [21]: 24 | neutralization IC50 [22]: 7 µg/mL | neutralization IC80 [22]: > 50 µg/mL | neutralization MPI [22]: 80 | neutralization IC50 [23]: 0.682 µg/mL | neutralization IC80 [23]: 3.05 µg/mL | neutralization MPI [23]: 100 | neutralization IC50 [24]: 3.94 µg/mL | neutralization IC80 [24]: 25.7 µg/mL | neutralization MPI [24]: 87 | neutralization IC50 [25]: 0.448 µg/mL | neutralization IC80 [25]: 2.63 µg/mL | neutralization MPI [25]: 100 | neutralization IC50 [26]: 0.629 µg/mL | neutralization IC80 [26]: 2.69 µg/mL | neutralization MPI [26]: 100 | neutralization IC50 [27]: 0.132 µg/mL | neutralization IC80 [27]: 0.445 µg/mL | neutralization MPI [27]: 100 | neutralization IC50 [28]: 0.634 µg/mL | neutralization IC80 [28]: 2.73 µg/mL | neutralization MPI [28]: 100 | neutralization IC50 [29]: 0.948 µg/mL | neutralization IC80 [29]: 6.22 µg/mL | neutralization MPI [29]: 97 | neutralization IC50 [30]: 0.661 µg/mL | neutralization IC80 [30]: 3 µg/mL | neutralization MPI [30]: 100 | neutralization IC50 [31]: > 50 µg/mL | neutralization IC80 [31]: > 50 µg/mL | neutralization MPI [31]: 35 | neutralization IC50 [32]: 0.54 µg/mL | neutralization IC80 [32]: 3.15 µg/mL | neutralization MPI [32]: 99 | neutralization IC50 [33]: > 50 µg/mL | neutralization IC80 [33]: > 50 µg/mL | neutralization MPI [33]: 48 | neutralization IC50 [34]: > 50 µg/mL | neutralization IC80 [34]: > 50 µg/mL | neutralization MPI [34]: 14 | neutralization IC50 [35]: 1.4 µg/mL | neutralization IC80 [35]: 3.76 µg/mL | neutralization MPI [35]: 99 | neutralization IC50 [36]: 2.52 µg/mL | neutralization IC80 [36]: 14.4 µg/mL | neutralization MPI [36]: 91

PGT145 (antibody)
IC50 (Titer in TZM.bl cells) [1]: > 50 µg/mL | IC80 (Titer in TZM.bl cells) [1]: > 50 µg/mL | neutralization IC50 [2]: < 0.001 µg/mL | neutralization IC80 [2]: < 0.001 µg/mL | IC50 (Titer in TZM.bl cells) [3]: 0.129 µg/mL | IC80 (Titer in TZM.bl cells) [3]: 0.923 µg/mL | IC50 (Titer in TZM.bl cells) [4]: 0.403 µg/mL | IC80 (Titer in TZM.bl cells) [4]: 15 µg/mL | IC50 (Titer in TZM.bl cells) [5]: < 0.001 µg/mL | IC80 (Titer in TZM.bl cells) [5]: 0.01 µg/mL | IC50 (Titer in TZM.bl cells) [6]: 3.21 µg/mL | IC80 (Titer in TZM.bl cells) [6]: 36 µg/mL | neutralization IC50 [7]: 32.1 µg/mL | neutralization IC80 [7]: > 50 µg/mL | IC50 (Titer in TZM.bl cells) [8]: > 50 µg/mL | IC80 (Titer in TZM.bl cells) [8]: > 50 µg/mL | IC50 (Titer in TZM.bl cells) [9]: > 50 µg/mL | IC80 (Titer in TZM.bl cells) [9]: > 50 µg/mL | IC50 (Titer in TZM.bl cells) [10]: 0.964 µg/mL | IC80 (Titer in TZM.bl cells) [10]: > 50 µg/mL | IC50 (Titer in TZM.bl cells) [11]: 0.08 µg/mL | IC80 (Titer in TZM.bl cells) [11]: 5.09 µg/mL | IC50 (Titer in TZM.bl cells) [12]: 0.114 µg/mL | IC80 (Titer in TZM.bl cells) [12]: 3.1 µg/mL | IC50 (Titer in TZM.bl cells) [13]: > 50 µg/mL | IC80 (Titer in TZM.bl cells) [13]: > 50 µg/mL | IC50 (Titer in TZM.bl cells) [14]: 3.12 µg/mL | IC80 (Titer in TZM.bl cells) [14]: > 50 µg/mL | IC50 (Titer in TZM.bl cells) [15]: 0.8 µg/mL | IC80 (Titer in TZM.bl cells) [15]: 20 µg/mL | neutralization IC50 [16]: 0.018 µg/mL | neutralization IC80 [16]: 0.419 µg/mL | IC50 (Titer in TZM.bl cells) [17]: 0.002 µg/mL | IC80 (Titer in TZM.bl cells) [17]: 0.023 µg/mL | IC50 (Titer in TZM.bl cells) [18]: 0.117 µg/mL | IC80 (Titer in TZM.bl cells) [18]: 0.745 µg/mL | IC50 (Titer in TZM.bl cells) [19]: > 50 µg/mL | IC80 (Titer in TZM.bl cells) [19]: > 50 µg/mL | IC50 (Titer in TZM.bl cells) [20]: > 50 µg/mL | IC80 (Titer in TZM.bl cells) [20]: > 50 µg/mL | IC50 (Titer in TZM.bl cells) [21]: 6.63 µg/mL | IC80 (Titer in TZM.bl cells) [21]: > 50 µg/mL | IC50 (Titer in TZM.bl cells) [22]: > 50 µg/mL | IC80 (Titer in TZM.bl cells) [22]: > 50 µg/mL | IC50 (Titer in TZM.bl cells) [23]: 0.024 µg/mL | IC80 (Titer in TZM.bl cells) [23]: 0.146 µg/mL | IC50 (Titer in TZM.bl cells) [24]: 0.005 µg/mL | IC80 (Titer in TZM.bl cells) [24]: 0.044 µg/mL | IC50 (Titer in TZM.bl cells) [25]: 0.009 µg/mL | IC80 (Titer in TZM.bl cells) [25]: 0.038 µg/mL | IC50 (Titer in TZM.bl cells) [26]: 2.27 µg/mL | IC80 (Titer in TZM.bl cells) [26]: 17.9 µg/mL | IC50 (Titer in TZM.bl cells) [27]: 0.073 µg/mL | IC80 (Titer in TZM.bl cells) [27]: 0.376 µg/mL | IC50 (Titer in TZM.bl cells) [28]: 0.037 µg/mL | IC80 (Titer in TZM.bl cells) [28]: 0.227 µg/mL | IC50 (Titer in TZM.bl cells) [29]: > 50 µg/mL | IC80 (Titer in TZM.bl cells) [29]: > 50 µg/mL | neutralization IC50 [30]: 5.18 µg/mL | neutralization IC80 [30]: > 50 µg/mL | IC50 (Titer in TZM.bl cells) [31]: 10.3 µg/mL | IC80 (Titer in TZM.bl cells) [31]: > 50 µg/mL | IC50 (Titer in TZM.bl cells) [32]: 0.013 µg/mL | IC80 (Titer in TZM.bl cells) [32]: 0.091 µg/mL | IC50 (Titer in TZM.bl cells) [33]: 5.6 µg/mL | IC80 (Titer in TZM.bl cells) [33]: > 50 µg/mL | IC50 (Titer in TZM.bl cells) [34]: 0.012 µg/mL | IC80 (Titer in TZM.bl cells) [34]: 2.03 µg/mL | IC50 (Titer in TZM.bl cells) [35]: > 50 µg/mL | IC80 (Titer in TZM.bl cells) [35]: > 50 µg/mL | IC50 (Titer in TZM.bl cells) [36]: 0.018 µg/mL | IC80 (Titer in TZM.bl cells) [36]: 0.065 µg/mL
